What all share (experiment): ProteOn, one antigen concentration
One experiment has as its target T1, IFN-α4a (human, UniProt P05014 24-189).
T1 construct: also called IFN-αM1

The next experiment concerns the target T2, human IFN-ω (human, UniProt P05000 24-195).
T2 construct: also called interferon omega

A further experiment addresses T3, IFN-αG (human, UniProt P01569 24-189).
T3 construct: also called IFN-α5; alpha G

The next experiment has as its target T4, IFN-αF (human, UniProt P01568 24-189).
T4 construct: also called IFN-α21; alpha F
T4 chain: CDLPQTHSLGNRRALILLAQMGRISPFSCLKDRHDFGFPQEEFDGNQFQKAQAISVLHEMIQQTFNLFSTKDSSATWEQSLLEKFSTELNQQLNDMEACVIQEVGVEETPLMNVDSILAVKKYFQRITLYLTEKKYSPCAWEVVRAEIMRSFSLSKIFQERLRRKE

The next experiment has as its target T5, IFN-αWA (human, UniProt P05015 24-189).
T5 construct: also called IFN-α16; alpha WA

The next experiment concerns the target T6, IFN-αC (human, UniProt P01566 24-189).
T6 construct: also called IFN-α10; alpha C

In a further experiment the target is T7, IFN-αJ1 (human, UniProt P01567 24-189).
T7 construct: also called IFN-α7; alpha J1

20 molecules from patent publication US20150368338A1 (Janssen / Centocor, published 2015) can be followed below.

Residue numbers refer to the chain shown, from its start.

Source text for IFN-α4a: (§1) To increase the assay throughput, only one concentration of the individual antigen was used.
Source text for IFN-αC: as §1
Source text for IFN-αF: as §1
Source text for IFN-αG: as §1
Source text for IFN-αJ1: as §1
Source text for IFN-αWA: as §1
Source text for human IFN-ω: as §1

B1: IFWM3315 (antibody, V domains shown)
VH: EVQLVQSGAEVKKPGESLKISCKGSGYSFTSYWIGWVRQMPGKGLEWMGIIDPSDSDTRYSPSFQGQVTISADKSISTAYLQWSSLKASDTAMYYCARHPGLNWAPDFDYWGQGTLVTVSS
VL: DIQMTQSPSSLSASVGDRVTITCRASQSITSSLNWYQQKPGKAPKLLIYFASSLQSGVPSRFSGSGSGTDFTLTISSLQPEDFATYYCQQSFDLPLTFGQGTKVEIK
notes: VH IFWH591, VL IFWL1017; converted mAb; also called IFWB3050
For B1, the Kd with IFN-α4a was found to be 0.24 nM; with human IFN-ω it was 0.063 nM; in the experiment with IFN-αG, 0.061 nM; with IFN-αF it was 0.05 nM; with IFN-αWA it was 0.115 nM; in the experiment with IFN-αC it was 0.059 nM. In addition, the dissociation constant Kd with IFN-αJ1 stood at 0.134 nM.

B2: IFWM3317 (antibody, V domains shown)
VH: B1 VH
VL: B1 VL with T30S, S31K, S32F, F92Y, L94F, L96I
notes: VH IFWH591, VL IFWL1026; converted mAb; also called IFWB3052
As to B2, the Kd in the experiment with IFN-α4a was 0.37 nM; with human IFN-ω, 0.016 nM; with IFN-αG, 0.126 nM; in the experiment with IFN-αF, 0.121 nM; with IFN-αWA it was 0.162 nM; with IFN-αC it was 0.133 nM. This molecule also yielded a Kd with IFN-αJ1 of 0.206 nM.

B3: IFWM3341 (antibody, V domains shown)
VH: B1 VH with R59A
VL: B1 VL with T30N, S31R, S32F, F50A, S91A, F92I, L96F
notes: VH IFWH624, VL IFWL991; converted mAb; also called IFWB3076
As for B3, the Kd came to 0.445 nM with IFN-α4a; 0.008 nM in the experiment with human IFN-ω; 0.063 nM in the experiment with IFN-αG; 0.088 nM with IFN-αF; 0.134 nM with IFN-αWA; 0.104 nM with IFN-αC. The molecule further gave a Kd in the experiment with IFN-αJ1 of 0.275 nM.

B4: IFWM3342 (antibody, V domains shown)
VH: B1 VH with R59A
VL: B1 VL with T30G, S32F, F92Y, D93S, L94I, L96I
notes: VH IFWH624, VL IFWL992; converted mAb; also called IFWB3077
On to B4, for which the Kd with IFN-α4a was found to be 0.589 nM; with human IFN-ω it was 0.068 nM; with IFN-αG, 0.014 nM; in the experiment with IFN-αF it was 0.164 nM; with IFN-αWA, 0.095 nM; in the experiment with IFN-αC, 0.142 nM. Further, the Kd with IFN-αJ1 turned out to be 0.269 nM.

B5: IFWM3349 (antibody, V domains shown)
VH: B1 VH with R59A
VL: B1 VL with T30G, S31K, F92Y, L94F
notes: VH IFWH624, VL IFWL1007; converted mAb; also called IFWB3084
With B5, the Kd with IFN-α4a turned out to be 0.174 nM; in the experiment with human IFN-ω, 0.007 nM; with IFN-αG, 0.065 nM; with IFN-αF, 0.052 nM; with IFN-αWA, 0.102 nM; with IFN-αC, 0.056 nM. For the same molecule, the Kd with IFN-αJ1 stood at 0.123 nM.

B6: IFWM3343 (antibody, V domains shown)
VH: B1 VH with R59A
VL: B1 VL with T30G, S32A, F92Y, L94F
notes: VH IFWH624, VL IFWL997; converted mAb; also called IFWB3078
Consider B6, for which the dissociation constant (Kd) came to 0.237 nM with IFN-α4a; 0.02 nM with human IFN-ω; 0.06 nM with IFN-αG; 0.063 nM with IFN-αF; 0.083 nM with IFN-αWA; 0.065 nM in the experiment with IFN-αC. Moreover, in the experiment with IFN-αJ1, the Kd was 0.157 nM.

B7: IFWM3347 (antibody, V domains shown)
VH: B1 VH with R59A
VL: B1 VL with T30A, S31E, S32F, F92I, L94F
notes: VH IFWH624, VL IFWL1004; converted mAb; also called IFWB3082
Take B7: the Kd was 0.35 nM with IFN-α4a; 0.048 nM with human IFN-ω; 0.084 nM with IFN-αG; 0.136 nM with IFN-αF; 0.125 nM in the experiment with IFN-αWA; 0.096 nM with IFN-αC. In the experiment with IFN-αJ1, the equilibrium dissociation constant (Kd) was found to be 0.411 nM.

B8: IFWM3320 (antibody, V domains shown)
VH: B1 VH
VL: B1 VL with T30N, S31G, S32V, F92H, L94F
notes: VH IFWH591, VL IFWL1047; converted mAb; also called IFWB3055
With B8, the Kd with IFN-α4a came to 0.089 nM; with human IFN-ω it was 0.021 nM; in the experiment with IFN-αG, 0.033 nM; with IFN-αF, 0.013 nM; with IFN-αWA it was 0.041 nM; in the experiment with IFN-αC, 0.02 nM. Moreover, binding with IFN-αJ1 was characterised by a dissociation constant (Kd) of 0.061 nM.

B9: IFWM3322 (antibody, V domains shown)
VH: B1 VH
VL: B1 VL with T30A, S31D, S32F, F92H, D93S, L94F
notes: VH IFWH591, VL IFWL1051; converted mAb; also called IFWB3057
With B9, the equilibrium dissociation constant (Kd) with IFN-α4a came out at 0.272 nM; with human IFN-ω, 0.04 nM; with IFN-αG it was 0.058 nM; with IFN-αF, 0.033 nM; in the experiment with IFN-αWA, 0.086 nM; with IFN-αC, 0.042 nM. In the experiment with IFN-αJ1, this molecule had a Kd of 0.127 nM.

B10: IFWM3325 (antibody, V domains shown)
VH: B1 VH
VL: B1 VL with T30R, S31N, Y49K, F50W, S91L, F92Y, L94W
notes: VH IFWH591, VL IFWL1060; converted mAb; also called IFWB3060
On to B10, for which the Kd turned out to be 0.111 nM with IFN-α4a; 0.011 nM with human IFN-ω; 0.033 nM in the experiment with IFN-αG; 0.032 nM in the experiment with IFN-αF; 0.091 nM with IFN-αWA; 0.022 nM with IFN-αC. In the experiment with IFN-αJ1, this molecule displayed a Kd of 0.092 nM.

B11: IFWM3348 (antibody, V domains shown)
VH: B1 VH with R59A
VL: B1 VL with T30G, S31G, S32F, F92Y, D93S, L96I
notes: VH IFWH624, VL IFWL1006; converted mAb; also called IFWB3083
Regarding B11, the Kd came out at 0.089 nM with IFN-α4a; 0.05 nM with human IFN-ω; 0.02 nM in the experiment with IFN-αG; 0.064 nM with IFN-αF; 0.049 nM in the experiment with IFN-αWA; 0.083 nM with IFN-αC. Also, the Kd with IFN-αJ1 turned out to be 0.164 nM.

B12: IFWM3319 (antibody, V domains shown)
VH: B1 VH
VL: B1 VL with S31G, S32F, F50A, F92H, L94F
notes: VH IFWH591, VL IFWL1041; converted mAb; also called IFWB3054
B12: the Kd came to 0.274 nM in the experiment with IFN-α4a; 0.034 nM with human IFN-ω; 0.049 nM with IFN-αG; 0.044 nM in the experiment with IFN-αF; 0.107 nM with IFN-αWA; 0.052 nM with IFN-αC. Further, the dissociation constant Kd with IFN-αJ1 came to 0.151 nM.

B13: IFWM3345 (antibody, V domains shown)
VH: B1 VH with R59A
VL: B1 VL with S31N, S32F, F92L, L94F
notes: VH IFWH624, VL IFWL1000; converted mAb; also called IFWB3080
On to B13, for which the Kd came to 0.324 nM in the experiment with IFN-α4a; 0.004 nM with human IFN-ω; 0.092 nM with IFN-αG; 0.12 nM with IFN-αF; 0.111 nM with IFN-αWA; 0.072 nM with IFN-αC. The molecule further registered a dissociation constant Kd with IFN-αJ1 of 0.169 nM.

B14: IFWM3318 (antibody, V domains shown)
VH: B1 VH
VL: B1 VL with T30S, S31E, S32Y, F92H, D93S, L96I
notes: VH IFWH591, VL IFWL1038; converted mAb; also called IFWB3053
B14: the Kd worked out at 0.252 nM with IFN-α4a; 0.018 nM with human IFN-ω; 0.04 nM with IFN-αG; 0.034 nM with IFN-αF; 0.091 nM with IFN-αWA; 0.03 nM with IFN-αC. In the experiment with IFN-αJ1, binding was put at a Kd of 0.119 nM.

B15: IFWM3321 (antibody, V domains shown)
VH: B1 VH
VL: B1 VL with T30D, S31G, S32A, S91A, F92Y, L94F
notes: VH IFWH591, VL IFWL1048; converted mAb; also called IFWB3056
In the case of B15, the dissociation constant Kd with IFN-α4a was 0.159 nM; with human IFN-ω, 0.033 nM; with IFN-αG it was 0.036 nM; with IFN-αF it was 0.024 nM; in the experiment with IFN-αWA, 0.058 nM; with IFN-αC it was 0.033 nM. In the experiment with IFN-αJ1, this molecule registered an equilibrium dissociation constant (Kd) of 0.079 nM.

B16: IFWM3350 (antibody, V domains shown)
VH: B1 VH with R59A
VL: B1 VL with T30D, S31D, S32F, F92H, D93T
notes: VH IFWH624, VL IFWL1009; converted mAb; also called IFWB3085
As for B16, the Kd with IFN-α4a was 0.161 nM; in the experiment with human IFN-ω it was 0.02 nM; with IFN-αG, 0.098 nM; with IFN-αF, 0.054 nM; with IFN-αWA, 0.066 nM; in the experiment with IFN-αC it was 0.057 nM. This molecule had a dissociation constant (Kd) with IFN-αJ1 of 0.055 nM.

B17: IFWM3344 (antibody, V domains shown)
VH: B1 VH with R59A
VL: B1 VL with T30S, S31K, S32F, F92N, D93T, L96F
notes: VH IFWH624, VL IFWL998; converted mAb; also called IFWB3079
As to B17, the dissociation constant Kd is 0.442 nM with IFN-α4a; 0.078 nM with human IFN-ω; 0.112 nM with IFN-αG; 0.14 nM with IFN-αF; 0.105 nM in the experiment with IFN-αWA; 0.161 nM with IFN-αC. In the experiment with IFN-αJ1, binding was characterised by a dissociation constant (Kd) of 0.274 nM.

B18: IFWM3316 (antibody, V domains shown)
VH: B1 VH
VL: B1 VL with T30N, S31E, S32F, F92Y, D93S, L94T
notes: VH IFWH591, VL IFWL1022; converted mAb; also called IFWB3051
Consider B18, for which the Kd is 0.168 nM with IFN-α4a; 0.042 nM in the experiment with human IFN-ω; 0.087 nM in the experiment with IFN-αG; 0.033 nM with IFN-αF; 0.073 nM in the experiment with IFN-αWA; 0.042 nM with IFN-αC. Besides, the Kd with IFN-αJ1 came out at 0.07 nM.

B19: IFWM3340 (antibody, V domains shown)
VH: B1 VH with R59A
VL: B1 VL with T30D, S31G, F92Y, L94F
notes: VH IFWH624, VL IFWL983; converted mAb; also called IFWB3075
Regarding B19, the dissociation constant Kd with IFN-α4a is 0.201 nM; in the experiment with human IFN-ω, 0.004 nM; with IFN-αG, 0.024 nM; with IFN-αF, 0.041 nM; with IFN-αWA it was 0.056 nM; with IFN-αC, 0.048 nM. In the experiment with IFN-αJ1, the Kd worked out at 0.124 nM.

B20: IFWM3346 (antibody, V domains shown)
VH: B1 VH with R59A
VL: B1 VL with T30G, S31D, S32F, S91A, F92L, L94F
notes: VH IFWH624, VL IFWL1001; converted mAb; also called IFWB3081
For B20, the Kd in the experiment with IFN-α4a stood at 0.48 nM; in the experiment with human IFN-ω it was 0.052 nM; with IFN-αG, 0.086 nM; with IFN-αF it was 0.117 nM; in the experiment with IFN-αWA it was 0.17 nM; with IFN-αC, 0.105 nM. The dissociation constant (Kd) in the experiment with IFN-αJ1 worked out at 0.505 nM.
